Assay in all cases: FRET or BRET
Assay [1] deals with HC-Pro^Tu-CFP (turnip mosaic virus).
In assay [2] the target is HC-Pro^Tu-K-CFP (turnip mosaic virus).
For assay [3], the target named is HC-Pro^Tu-CFP (turnip mosaic virus). This is another data set of the same source.
Assay [4] has as its target HC-Pro^Tu-K-CFP (turnip mosaic virus). The source holds these as a separate data set.

Where two headings read alike, the source gives them in different places.

Four molecules from article PMC11906750 can be followed below.

For the molecule HC-Pro^Tu-CFP (natural protein), in assay [1], the FRET efficiency amounted to 70%. HC-Pro^Tu-K-CFP (natural protein) showed an FRET efficiency in assay [2] of 72%.

B1: YFP-HEN1 (enzyme)
chain: MAGGGKHTPTPKAIIHQKFGAKASYTVEEVHDSSQSGCLGLAIPQKGPCLYRCHLQLPEFSVVSNVFKKKKDSEQSAAELALDKLGIRPQNDDLTVDEARDEIVGRIKYIFSDEFLSAEHPLGAHLRAALRRDGERCGSVPVSVIATVDAKINSRCKIINPSVESDPFLAISYVMKAAAKLADYIVASPHGLRRKNAYPSEIVEALATHVSDSLHSREVAAVYIPCIDEEVVELDTLYISSNRHYLDSIAERLGLKDGNQVMISRMFGKASCGSECRLYSEIPKKYLDNSSDASGTSNEDSSHIVKSRNARASYICGQDIHGDAILASVGYRWKSDDLDYDDVTVNSFYRICCGMSPNGIYKISRQAVIAAQLPFAFTTKSNWRGPLPREILGLFCHQHRLAEPILSSSTAPVKSLSDIFRSHKKLKVSGVDDANENLSRQKEDTPGLGHGFRCEVKIFTKSQDLVLECSPRKFYEKENDAIQNASLKALLWFSKFFADLDVDGEQSCDTDDDQDTKSSSPNVFAAPPILQKEHSSESKNTNVLSAEKRVQSITNGSVVSICYSLSLAVDPEYSSDGESPREDNESNEEMESEYSANCESSVELIESNEEIEFEVGTGSMNPHIESEVTQMTVGEYASFRMTPPDAAEALILAVGSDTVRIRSLLSERPCLNYNILLLGVKGPSEERMEAAFFKPPLSKQRVEYALKHIRESSASTLVDFGCGSGSLLDSLLDYPTSLQTIIGVDISPKGLARAAKMLHVKLNKEACNVKSATLYDGSILEFDSRLHDVDIGTCLEVIEHMEEDQACEFGEKVLSLFHPKLLIVSTPNYEFNTILQRSTPETQEENNSEPQLPKFRNHDHKFEWTREQFNQWASKLGKRHNYSVEFSGVGGSGEVEPGFASQIAIFRREASSVENVAESSMQPYKVIWEWKKEDVEKKKTDL
B1 registered an FRET efficiency in assay [3] of 55%.

B2: YFP-ATG8a (natural protein)
chain: MAKSSFKISNPLEARMSESSRIREKYPDRIPVIVEKAGQSDVPDIDKKKYLVPADLTVGQFVYVVRKRIKLGAEKAIFVFVKNTLPPTAALMSAIYEEHKDEDGFLYMTYSGENTFG
As to B2, the FRET efficiency in assay [3] and in assay [4] was 30% in each case.
